Results: publication doi:10.1101/2024.05.12.593783

How the values were obtained:
[1] = target: FITC-pCLMBWT peptide (residues 21-50, pThr44) (UniProt Q96GX8); assay: fluorescence polarisation
[2] = target: FITC-CLMBWT peptide (residues 21-50), not phosphorylated (UniProt Q96GX8); assay: fluorescence polarisation

Substance: purified, catalytically inactive CNA/B containing CNA_(Trunc+H151Q) (from UniProt Q08209 1-391; P63098 1-170) (complex)
- Kd [1]: 14.1 nM
- Kd [2]: 291 nM
